Measurements from patent publication US20190233521A1 (GENEFRONTIER, published 2019).
Changes are numbered by the printed parent chain. Each block holds one binder with its values, some of them ahead of it.

Columns and labels:
[1] = biological target: T1, human CD69 partial peptide #26 (YAGREEHWVGLK) (human); experiment: peptide array (PepSpots), HRP-labelled antibody
T1 construct: Immobilized on a PepSpots peptide array (JPT)
T1 peptide: YAGREEHWVGLK
Description: (§1) To be specific, as shown in the following Table, a peptide array consisting of peptides having the residue number of 12 amino acid residues and an offset of 3 amino acid residues was produced for a sequence covering the extracellular domain of human CD69 (60-199) (PepSpots, manufactured by JPT). The peptide array and the anti-human CD69 antibody were reacted according to the manual of JPT. Anti-human CD69 antibodies labeled with HRP (Peroxidase Labeling Kit-NH2, manufactured by Dojindo) were used.

[2] = biological target: T2, human CD69 recombinant protein (extracellular region 62-199, homodimer) (human, UniProt Q07108 62-199); experiment: Scatchard plot; solution equilibrium with antigen, free IgG measured by ELISA
T2 construct: Expressed in the E. coli periplasm from cDNA NM_001781; also called human CD69 homodimer protein; extracellular domain of human CD69
T2 sequence: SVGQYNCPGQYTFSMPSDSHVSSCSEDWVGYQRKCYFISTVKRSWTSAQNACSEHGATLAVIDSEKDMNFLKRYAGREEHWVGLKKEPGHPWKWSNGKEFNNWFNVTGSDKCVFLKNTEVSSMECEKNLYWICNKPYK
Method: In the present specification, the KD value relating to the binding affinity of the antibody of the present invention to human CD69 is calculated according to the principle described in Immunoassays (OXFORD UNIVERSITY PRESS, 2000) using a scatchard plot method. An antibody is incubated with various concentrations of antigen (extracellular domain of human CD69) at room temperature for 2 hr until equilibrium, and the amount of free antibody present in the incubation solutions is measured by the ELISA method. The binding constant and dissociation constant (KD value) are determined based on the changes in the amount of free antibody in each equilibrated sample. The antibody concentration during equilibration reaction is to be 0.015 μg/ml, and an ELISA plate for the measurement of the amount of free antibody is to be immobilized with the antigen at 1 μg/ml.
(§2) The affinity of the prepared IgG clones for human CD69 was evaluated by scatchard plot. To be specific, it was calculated according to the principle described in Immunoassays (OXFORD UNIVERSITY PRESS, 2000). An antibody was incubated with various concentrations of antigen at room temperature for 2 hr until it reaches equilibrium, and the amount of free antibody present in the incubation liquids was measured by the ELISA method. The binding constant and dissociation constant (KD value) were determined based on the changes in the amount of free antibody in each equilibrate sample. The concentration of the antibody in the equilibration reaction was set to […], and an ELISA plate immobilized with the antigen at 1 μg/ml was used for the measurement of the amount of free antibody.

[3] = biological target: T3, human CD69 partial peptide #25 (LKRYAGREEHWV) (human); experiment: peptide array (PepSpots), HRP-labelled antibody
T3 construct: Immobilized on a PepSpots peptide array (JPT)
T3 peptide: LKRYAGREEHWV
Description: as §1

[4] = biological target: T4, human CD69 partial peptide #24 (MNFLKRYAGREE) (human); experiment: peptide array (PepSpots), HRP-labelled antibody
T4 construct: Immobilized on a PepSpots peptide array (JPT)
T4 peptide: MNFLKRYAGREE
Description: as §1

[5] = biological target: T2, human CD69 recombinant protein …; experiment: Scatchard plot KD; reference 160-c76 IgG
Method: as §2

binding result [1]: binds | Kd [2]: 47.6 nM
B1: 160-c7 IgG antibody (IgG4) (antibody, V domains shown)
VH: QVQLVQSGAEVKKPGASVKVSCKASGYTFTSYDMHWVRQAPGQGLEWMGWINPYSGNTNYAQKFQGRVTMTRDTSISTAYMELSSLRSEDTAVYYCARMYYDKDYLSWGTDSWGQGTLVTVSS
VL: DIQMTQSPSSLSASVGDRVTITCRASQDISSYLNWYQQKPGKAPKLLIYGASNLQSGVPSRFSGSGSGTDFTLTISSLQPEDFAVYYCQQYSDYPHTFGQGTKVEIKR
notes: Full IgG made in HEK293T; HRP-labelled in the peptide array

binding result [3]: binds | binding result [4]: binds | binding result [1]: binds | Kd [2]: 7.58 nM
B2: 160-c103 IgG antibody (IgG4) (antibody, V domains shown)
VH: QVQLVESGGGLVQPGGSLRLSCAASGFTFSNYYMSWVRQAPGKGLEWVSVISYDGISTHYADSVKGRFTISRDNSKNTLYLQMNSLRAEDTAVYYCARYIGNSLYMDFWGQGTLVTVSS
VL: DIVLTQSPATLSLSPGERATLSCRASQSVSSYLAWYQQKPGQAPRLLIYGTSIRATGVPARFSGSGSGTDFTLTISSLEPEDFATYYCQQEYSSPPTFGQGTKVEIKR
notes: as for B1

fold increase of affinity against 160-c76 [5]: 9 fold | Kd [2]: 1.13 nM
B3: 234-61 IgG antibody (IgG4) (antibody, V domains shown)
VH: QVQPGGSLRLSCAASGFTFSNFVMHWVRQAPGKGLEWVSSISGSSSSTYYADSVKGRFTISRDNSKNTLYLQMNSLRAEDTAVYYCARYYYASFDYWGQGTLVTVSS
VL: DIELTQPPSVSVAPGQTARISCSGDSLGSKYVYWYQQKPGQAPVVVIYGDSKRPSGIPERFSGSNSGNTATLTISGTQAEDEADYYCQSYTSFTTKIVFGGGTKLTVLG

Kd [2]: 27.8 nM
B4: 160-c76 IgG antibody (IgG4) (antibody, V domains shown)
VH: B3 VH
VL: DIELTQPPSVSVAPGQTARISCSGDSLGSKYVYWYQQKPGQAPVVVIYGDSKRPSGIPERFSGSNSGNTATLTISGTQAEDEADYYCQSYDSNIMVFGGGTKLTVLG
notes: Full IgG made in HEK293T

fold increase of affinity against 160-c76 [5]: ≥ 9 fold | Kd [2]: 2.83 nM
B5: 234-83 IgG antibody (IgG4) (antibody, V domains shown)
VH: B3 VH
VL: B3 VL with Q88G, S92T, F93G, T94A, T95K, K96S, I97H
notes: HRP-labelled in the peptide array
